Source: the RNAGym collection of RNA variant scans (doi:10.1073/pnas.2313332121)
Variants at the floor of the assay were thinned out.

B1: TPR 5TU (parent)
chain: GGAUCUUCUCGAUCUAACAAAAAAGACAAAUCUGCCACAAAGCUUGAGAGCAUCUUCGGAUGCAGAGGCGGCAGCCUUCGGUGGCGCGAUAGCGCCAACGUUCUCAACUAUGACACGCAAAACGCGUGCUCCGUUGAAUGGAGUUUAUCAUG

Variants of: B1
Assay: polymerase ribozyme fitness, log enrichment relative to wild type (log ratio); higher = more active; in vitro selection for triplet polymerase activity
How it was run: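 Fitness measures genotype enrichment against wild-type enrichment on a logarithmic scale, with inverse-variance-weighted averaging of replicates. The logarithm is base 2, and genotypes were kept only with ≥10 input reads and ≥1 read per output in Illumina sequencing. The sequenced libraries came from one triplicate in vitro selection round, including frozen incubation at −7 °C, of PCR-built, transcribed mutant libraries of each subunit of a heterodimeric triplet polymerase ribozyme.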

Variant | polymerase ribozyme fitness (log ratio)
G48U A106G | -1.48
A49G G50A G140U | -3.96
A49G G50U C51U C96U A98C G126A U134G U146A | -3.95
A49U C57A G81A A98C U148G | ≤ -4.2
A49G G84U U145G | -3.09
A49U C69G C75A U90G | ≤ -4.2
A49C G88U C96G A115U U148G | ≤ -4.2
G48A U61A C105G | ≤ -4.2
A49U A60C | -3.47
A49C U55A G143C | ≤ -4.2
G48A U61A G71A C85G A107U G124U G141U | ≤ -4.2
A49C C51U A52C G62A G70A G84A A106G A115G | ≤ -4.2
G48U U82G C96G | -1.48
A49C A119U | ≤ -4.2
A49C G94C | -4.16
A49C U53A G88C G141C | ≤ -4.2
G48C C69A C149U | -2.77
A49G G83U | -1.22
G48C A49G U55G A66U C85U A97C G126C | ≤ -4.2
A49C A52G G83A U102G U134G | -3.78
A49U G136A G141A | -0.805
G48U A73G A122C U146C | -0.965
A49G A60G C85U | -0.602
A49C G86U C96G C123U U146G | ≤ -4.2

Variant | polymerase ribozyme fitness (log ratio)
G50A A66G | -3.75
A49C C72A C108A U135G | ≤ -4.2
A49G U55A A73G | -3.1
G48C G84C C85A A110U C125A | ≤ -4.2
A49G C96G | -1.61
A49G C96U | -0.233
A49U G80A | -3.76
G48C C96A U111A A138C | ≤ -4.2
A49C U56G G65U A73C C87A | ≤ -4.2
A49C C69G C85A A120C C125U | ≤ -4.2
G48C G86U C95A C96G G117C G136A | ≤ -4.2
G48U U53A C85U | -1.94
A49C A52C U56C C87G C95U A98G A107C A119G | -4.17
A49C C57U | -3.72
A49C G68A U102G A107G | ≤ -4.2
A49C A66C G81C G83U C99U U101G C108U | ≤ -4.2
G48U C57G C93U G136A U146G | -2.43
A49G G50A U53A U77G C79U G92U U109G A122U U134C U135C C149A A150U | ≤ -4.2
A49G G59C G67A G70A U77C U82C A89G C95G | ≤ -4.2
A49C G68C C85G A115G A119G G141U A147C | ≤ -4.2
A49G U55A C79U G92U C95A G140A | ≤ -4.2
G48C C54A A73U C99A A150C | ≤ -4.2
G48U G84U | -2.01
G48A U135A | -0.864

Variant | polymerase ribozyme fitness (log ratio)
G50A A60C G62A C76U C96U G100U C108G | ≤ -4.2
A49C C75G G83U G141A U146A | ≤ -4.2
A49U A97U A106G C116U | -2.93
A49U A73G G81C C85U | -2.64
G48C U56C A73G C118A | -2.46
G48C U53C C87U U145C | -2.69
G48C G94U C96U C118G A122U | -3.42
A49C G68A | ≤ -4.2
G48C C96U A110G | ≤ -4.2
A49C C93A C103G G117U C149G | ≤ -4.2
A49C C93A | ≤ -4.2
G48U G83A U134A G136A | -2.44
A49C A52C C57A A91U C96G G112A G117U G143C A150G | ≤ -4.2
A49C C69A C79U G83U G94U U104A | ≤ -4.2
A49G G70A G140U | ≤ -4.2
G48C C85A A120G | -2.75
A49C C79U C85U C132A U134A | ≤ -4.2
A49U G83A U145A | -1.1
A49G U56G G83C | -2.85
G48A U61A A91C C131A U139C | ≤ -4.2
A49U G62C C123U | -2.38
A49C A52C A66G G86C A119G | ≤ -4.2
A49U A119C U127A U134A | ≤ -4.2
G50A A52C A97G G100A C114G G133U | ≤ -4.2

Variant | polymerase ribozyme fitness (log ratio)
A49G C51G | -2.66
G48C C54U G58C C87U C123U | -1.05
A49U U101C C116U | -1.49
G48U A49C C69G G86A C93U U139G A150G | ≤ -4.2
A49U A73U C75A | ≤ -4.2
G50A A52C G84U A122U G141U | -3.68
G48U C116U | -0.65
A49G G94A U127C | -3.23
A49G C125G | -0.947
A49C G68C G81C C93A G126A | ≤ -4.2
A49C G59U U77C G81C U109G G141C | ≤ -4.2
A49C A73G A91G C108U A119C C125A | ≤ -4.2
A49C C79G G94C | ≤ -4.2
A49C C95U C96G | -3.85
A49C A97G U148C | ≤ -4.2
A49C G50C U53A C79A A137U | ≤ -4.2
A49C G92U U127C | ≤ -4.2
A49C A89U G92C U104G U127G A142G | ≤ -4.2
A49C U56A G88U A122C C125U | ≤ -4.2
A49C C51A C99U C132G | ≤ -4.2
G50A A52U U78C C116A C149G | ≤ -4.2
A49G A91G | -4.05
G48U A98G | -0.0311
G48C G94U C103U G140A | ≤ -4.2

Variant | polymerase ribozyme fitness (log ratio)
A49C C87A C132A | ≤ -4.2
A49U G86A C87G A106C G136U A150C | ≤ -4.2
G48U C85A U127C | -2.74
A49G G50A C95U U145C | -2.54
A49C A52C C54A G74U C76G C125U | ≤ -4.2
A49U G141A A147G | ≤ -4.2
A49G C76U A89C C96A | -2.23
A49C U53A A106G | ≤ -4.2
A49C A52G C72A | ≤ -4.2
G48C U53A G74C C85U C99U A119G A120G | ≤ -4.2
A49U U53A G86A C87A A89G C114U | ≤ -4.2
A49U A142C | -1.43
G48C A49C C63U G86A C149A | ≤ -4.2
A49C C51U G133A G143U | ≤ -4.2
A49C C76A | ≤ -4.2
A49U U56A C99G A147G | ≤ -4.2
A49C G50U G71C G94C G136A U144C | ≤ -4.2
A49U U56G G81A G94A U146G | ≤ -4.2
G48C A98G U101C U144A A147U | -0.0628
G48A U55G A142C | -2.84
G48C U55A C103G | -0.533
A49U U56G C85U G86U U102C | ≤ -4.2
A49U U61A A138C G140C | ≤ -4.2
A49C C75A G81C C93G A106C U109A G136A | ≤ -4.2

Variant | polymerase ribozyme fitness (log ratio)
A49C U55A A66U C72A C85U | ≤ -4.2
A49C A52C A91U U130A U134A U135C A142G | ≤ -4.2
A49U C116G C149U | -4.18
A49C G62C U139C | ≤ -4.2
G50A A52C G81C | -2.82
A49G C63U G81C U104G | -2.29
A49G C51U C95G A137G U144A | ≤ -4.2
A49G U55G C57U A60G C75G C76U U90A U102C U134G G140C | ≤ -4.2
A49C G81A G112A C114U G128A G133A | ≤ -4.2
G48C A49G A113G | ≤ -4.2
G48U G92U A121C A150C | ≤ -4.2
A49C C54U G86C G88C A138U | ≤ -4.2
A49C G71C U101G A137U A150U | ≤ -4.2
G48C C76U | -3.15
A49G G81C A91G A98U | -2.95
A49C G81U G84U C125G G141C A150U | ≤ -4.2
A49G C75G U77A U82C C93G C125U U134C U146C A147U | ≤ -4.2
G48C C54A C108G C114U C125U U134A C149G | ≤ -4.2
G48C U55A A122U | 0.121
A49C U61G C99G G124A | ≤ -4.2
A49G G140A | -3.77
A49G G140C | -3.88
A49G G92U | 0.21
A49G C105U A113G A115C A147U | ≤ -4.2

Variant | polymerase ribozyme fitness (log ratio)
A49C G70A C75G C93G A97C C116G C118G | ≤ -4.2
G48C A113C U148C | ≤ -4.2
A49C G65C G88U C96A | -4.03
A49U C85G A115C | -3.64
A49C G143A | -4.14
G48A U101G | -2.26
A49G A52C G59A G84A G94U C103U | ≤ -4.2
G48C G50U G92C U145G | -4.11
A49C U82A G86A G126A | ≤ -4.2
G48C C85U G94U C96U U144C | -3.25
G48C C76A U90G U130G | ≤ -4.2
A49G C95U | -0.995
G48U A142U | -2.92
A49C A98G | ≤ -4.2
G48C A73U U135G | ≤ -4.2
G48C A115G G133A | -3.85
G48C C99U | -1.72
A49U G50A G84A C95G U146C | -1.2
G48C C85A A142U | ≤ -4.2
A49U G58A U102G A122U | -0.217
G48C C87G G88C A91G A119U U134G | ≤ -4.2
G50A A52C | -3.13
A49C U53A G81C A98U G100A C103A | ≤ -4.2
